Assay [1] has as its target T1, maltose-binding protein-fused CD30 (Homo sapiens, UniProt P28908-1).
T1 construct: signal peptide in the construct; human CD30 extracellular domains, residues 1-336; also called CD30-MBP; source: Expi293, purified (Ni-NTA, Superdex200); not shown: MBP, C-terminal, kept
As to the kind of experiment: SPR; Biacore T200; cAb or BpAb captured on anti-human Fc (CM5), CD30-MBP flowed at 0, 2 and 20 nM (0, 20 and 200 nM for T426), contact 90 s, dissociation 300 s; 'at a rough level'. Particulars: both partners purified. For orientation: In SPR one partner is held on a chip, and binding of the other changes the refractive index at the surface.

The target of another assay is T2, CD30 fused to rabbit Fc (Homo sapiens, UniProt P28908-1).
T2 construct: signal peptide in the construct; human CD30 whole extracellular domains, NP_001234.3 amino acids 1-383; also called CD30-rFc; source: HEK293T, transfected, harvested from the culture supernatant; not shown: hinge and Fc (rabbit IgG1), C-terminal, kept
T2 sequence (P28908 19-383): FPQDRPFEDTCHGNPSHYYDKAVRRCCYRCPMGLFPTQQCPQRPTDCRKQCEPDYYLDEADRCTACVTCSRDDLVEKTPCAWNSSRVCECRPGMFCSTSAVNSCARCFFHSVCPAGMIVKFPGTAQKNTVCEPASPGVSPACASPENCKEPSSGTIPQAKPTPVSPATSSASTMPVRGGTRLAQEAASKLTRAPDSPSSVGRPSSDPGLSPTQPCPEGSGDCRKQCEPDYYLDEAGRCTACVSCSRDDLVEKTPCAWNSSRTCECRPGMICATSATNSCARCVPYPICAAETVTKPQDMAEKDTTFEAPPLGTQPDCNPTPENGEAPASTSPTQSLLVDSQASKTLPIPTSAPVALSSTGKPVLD
Kind of assay: ELISA; mutual competition: indicator cAb (0.75 μg/mL) captured on goat anti-human IgG Fc; CD30-rFc (50 ng/mL) pre-incubated overnight at 4 °C with competitor cAb (2.8 μg/mL); bound CD30-rFc probed with anti-rabbit IgG. As to conditions: one partner purified. For orientation: ELISA stands for enzyme-linked immunosorbent assay.

T1 sequence (P28908 19-336): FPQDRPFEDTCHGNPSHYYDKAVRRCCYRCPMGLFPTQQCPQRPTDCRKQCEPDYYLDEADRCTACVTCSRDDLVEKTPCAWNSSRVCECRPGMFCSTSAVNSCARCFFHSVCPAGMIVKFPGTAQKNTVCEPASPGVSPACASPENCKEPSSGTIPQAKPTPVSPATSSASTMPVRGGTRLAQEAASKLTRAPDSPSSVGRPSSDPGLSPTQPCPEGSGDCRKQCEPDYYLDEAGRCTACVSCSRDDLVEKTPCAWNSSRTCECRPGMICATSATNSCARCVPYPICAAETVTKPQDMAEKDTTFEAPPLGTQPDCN

B1: T107 cAb (antibody, V domains shown)
VH: QVQLQQSGPELVRPGVSVKISCKGSGYSFPDYPLHWVKQSHAKSLEWIGIILTYSGNTNYNQNFKGKATMTVDTSSNTAYLELARLTSEDSAIYYCATFYYGYDGAFDYWGQGTTLTVSS
VL: DIVMTQSPSSLTVTAGEKVTMSCKSSQSLLNSGNQKNYLTWYQQKPGQPPKLLIHWASTRESGVPDRFTGSGSGTDFILTITSVQAEDLAVYYCQNDYTYPLTFGGGTKLELK
For B1, the binding result (in assay [1]; with CD30 fused to rabbit Fc) was “binds” throughout.

B2: T405 cAb (antibody, V domains shown)
VH: QVQLQQIGAELVRPGASVKLSCKASGYTFNNYWINWVKQRPGQGLEWIGNIYPSDSRSNYNQKFKDKATLTVDKPSSTAYMQLSSPTSEDSAVYYCTLGSYWGQGTLVTVSA
VL: not shown
Take B2: in assay [1], the binding result is reported as “binds”.

B3: AC10 cAb (antibody, V domains shown)
VH: QIQLQQSGPEVVKPGASVKISCKASGYTFTDYYITWVKQKPGQGLEWIGWIYPGSGNTKYNEKFKGKATLTVDTSSSTAFMQLSSLTSEDTAVYFCANYGNYWFAYWGQGTQVTVSA
VL: DIVLTQSPASLAVSLGQRATISCKASQSVDFDGDSYMNWYQQKPGQPPKVLIYAASNLESGIPARFSGSGSGTDFTLNIHPVEEEDAATYYCQQSNEDPWTFGGGTKLEIK
Regarding B3, the binding result (in assay [1]; with CD30 fused to rabbit Fc) was “binds” throughout.

B4: T427 cAb (antibody, V domains shown)
VH: QVQLQQPGTELVRPGASVKLSCKASGFSFTSYWMNWVKQRPGQGLEWIGMIHPSDSETRLNQKFKDRATLTVDKSSSTAYMQLSSPTSEDSAVYYCASEMDYYFAMDYWGQGTSVTVSS
VL: DIVLTQSPTSLAVSLGQRATISCRASESVDSYGNSFMHWFQQKPGQPPKLLIYRASNLESGIPARFSGSGSWTDFTLTINPVEADDVATYYCQQSNEDPRTFGGGTKLEIK
As to B4, the binding result (in assay [1]; with CD30 fused to rabbit Fc) was “binds” in each case.

B5: T426 cAb (antibody, V domains shown)
VH: EVQLQQSGAELVKPGASVKLSCTASGFNVKDTYVHWVKQRPEQGLEWIGRIDPANSDTKYDSKFQGKATTSADTSSNTAYLQLNSLTSEDTAVYYCASGTDDYYWYFDVWGAGTTVTVSS
VL: DIVLTQSPASLAVSLGQRATISCRASKSVSTPAHTYMHWYQQKPGQPPKLLIYLASNLESGVPARFSGSGSGTDFTLNIHPVEVEDAATYYCQHSRVLPYTFGGGTKLEIK
With B5, the binding result with CD30 fused to rabbit Fc is recorded as “binds”.

B6: T104 cAb (antibody, V domains shown)
VH: QIQLVQSGPELKKPGETVKISCKASGYTFTDYSMHWVKQAPGKGLKWMGWINTETGEPTYADDFKGRFAFSLETSASTAYLQINNLKNEDTATYFCTEGYVFDFWGQGTTLTVSS
VL: DILLTQSPAILSVSPGERVSFSCRASRSIGTSIHWYQQRTNGSPRLLINYASESISGIPSRFSGSGSGTDFTLSINSVESEDIADYYCQQSNSWPLTFGAGTKLELK
B6: in assay [1], the binding result is on record as “binds”.

B7: T105 cAb (antibody, V domains shown)
VH: QVTLKESGPGILQPSQTLSLTCSFSGFSLSTSGMGVSWIRQPSGKDLEWLAHIYWDDDKRYNPSLKSRLTISKDTSSNQVFLKITSVDTADTATYYCARRADGLYFYLDVWGAGTTVTVSS
VL: DIVMTQSQKFMSTSVGDRVSVTCKASQNVNTNVAWYQQKPGQSPEALIYSASYRYSGVPDRFTGSGSGTDFTLTISNVQSEDLAEYFCQQYNSYPLTFGSGTKLEIK
As to B7, the binding result (in assay [1]; in the assay with CD30 fused to rabbit Fc) was “binds” throughout.

B8: T6 cAb (antibody, V domains shown)
VH: QVQLKESGPGLVTPSQSLSITCTVSGFSLSKYSIHWVRQPPGRGLEWLGMIWGVENTDYNSALKSRLSISKDNSKSQVFLKMNSLQSDDTAMYYCARKDLGLYGMNYWGQGISVTVSA
VL: DIVMTQSQKFMSTSVGDRVSVTCKASQNVGTNVAWYQQKPGQSPKALFYSASYRYSGVPDRFIGSGSGTVFTLTISNVQSEDLAEYFCQQYNTYPLTFGSGTKLEIE
Take B8: in assay [1], the binding result is “binds”.

B9: T25 cAb (antibody, V domains shown)
VH: QVTLKESGPGILQPSQTLSLTCSFSGFSLNTSGVGVGWIRQPSGKGLEWLAHIWWDDDERYNPVLKSRLTISKDTSSNQVFLKIANVDTADSATYYCVRSMVAWFPYWGRGTLVTVSA
VL: DIVMSQSPSSLAVSVGEKFTVNCKSSQSLLYSSNQKNFLAWYQQKPGQSPKLLIYWASTRESGVPDRFIGSGSGTDFTLTISSVKAEDLAVYYCQQHYRYPWTFGGGTKLEIK
On to B9, for which the binding result in assay [1] is “binds”.

The values are drawn from PMC11826918, “Generation of antagonistic biparatopic anti-CD30 antibody from an agonistic antibody by precise epitope determination and utilization of structural characteristics of CD30 molecule” (Antibody Therapeutics, 2025).
